These results are taken from patent publication US20250320293A1 (REGENECORE BIOTECH, published 2025).

Assay [1] deals with T1, recombinant human TREM2 protein (amino acids 19 to 174) (human, UniProt Q9NZC2 19-174).
T1 chain: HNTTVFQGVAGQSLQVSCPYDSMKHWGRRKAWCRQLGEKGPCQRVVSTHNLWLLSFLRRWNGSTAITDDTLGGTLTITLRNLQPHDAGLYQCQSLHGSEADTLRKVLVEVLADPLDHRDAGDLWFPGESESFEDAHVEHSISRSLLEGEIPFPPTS
As to the kind of experiment: ELISA. Background: An ELISA detects its analyte on a solid surface through an enzyme-linked reagent.

The target of assay [2] is T2, recombinant human TREM2 protein (amino acids 19 to 174) (human, UniProt Q9NZC2 19-174).
T2 construct: range 19-174
T2 sequence (looked up): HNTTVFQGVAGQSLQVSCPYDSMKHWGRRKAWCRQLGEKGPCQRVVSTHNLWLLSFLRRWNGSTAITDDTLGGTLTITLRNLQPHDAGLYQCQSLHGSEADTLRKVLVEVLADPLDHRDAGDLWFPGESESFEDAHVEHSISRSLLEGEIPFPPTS
As to the kind of experiment: ELISA, crude VHH extract on coated TREM2, anti-HA-HRP; positive if OD450 more than five times the control. The method, then:
Crude antibodies were obtained by osmotic bursting. The TREM2 recombinant proteins were diluted in 100 mM NaHCO₃ of pH 8.3, respectively. An ELISA plate was then coated with 100 μg of the proteins and left at 4° C. overnight. 100 μL of the obtained crude antibody extract was transferred to the ELISA plate into which the antigen was added. The plate was incubated at room temperature for 1 h. The unbound antibody was washed away with phosphate buffered saline with Tween (PBST), and 100 μL of Mouse Anti-HA tag Antibody (HRP) (mouse anti-HA horseradish peroxidase-labeled antibody, Thermo Fisher) at 1:2000 dilution was added and incubated at room temperature for 1 h. The unbound antibody was washed away with PBST, and a horseradish peroxidase color development solution was added. After react at 37° C. for 15 min, a stopping solution was added. The absorbance value was read at the wavelength of 450 nm on a microplate reader.
When an optical density (OD) value of a sample well is more than five times greater than that of the control well, the sample well is identified as a positive clone well. The bacteria in the positive clone well were transferred to an LB medium containing 100 μg/mL ampicillin under shaking for plasmid extraction and sequencing.

For assay [3], the target named is T1, recombinant human TREM2 protein (amino …). Description: ELISA.
In assay [4] the target is T2, recombinant human TREM2 protein (amino …). Description: ELISA, VHH-hFc titrated on coated TREM2 (1 ug/mL), HRP-goat anti-hIgG.
Assay [5] concerns the target T1, recombinant human TREM2 protein (amino …). Description: ELISA.
The target is the same in assay [6]. As to the kind of experiment: ELISA.

Where two headings read alike, the source gives them in different places.

B1: 12G12W-hFC1 (Fc fusion antibody of single-domain antibody 12G12W) (Fc fusion)
chain (part 1 of 2): ESGGGLVQAGESLRLSCAASGRTFTNYAMGWFRQAPGKEREFVAGVSWSGSSTDYADSVKGRFTISTDNAKNTVYLQMTSLKPEDTAVYICGVKYFGHSRGGYDYWGQGTQVTVSS
For the molecule B1, the EC50 – broadly, the midpoint of the concentration-response curve – in assay [1] was determined as 0.254 nM.

B2: single-domain antibody 12G12W (VHH)
VHH: ESGGGLVQAGESLRLSCAASGRTFTNYAMGWFRQAPGKEREFVAGVSWSGSSTDYADSVKGRFTISTDNAKNTVYLQMTSLKPEDTAVYICGVKYFGHSRGGYDYWGQGTQVTVSS
notes: Crude extract from E. coli (pMECS vector), detected through an HA tag
On to B2, for which, in assay [2], the binding result is listed as “binds”.

B3: Fc fusion antibody of single-domain antibody 11D3 (Fc fusion)
chain: ESGGGLVQAGESLRLSCAASGRTFTDYAMGWFRQAPGKEREFVAGVSWSGSSTDYADSVKGRFTISTDNAKNTVYLQMTSLKPEDTAVYICGVKYFGHSRGGYDYWGQGTQVTVSS
notes: also called VHH-hFc; not shown: human IgG1 (vector RJK-V4-hFC1) or IgG4 (vector RJK-V4-3) hinge, CH2, CH3 with 6xHis tag; which of the two is told only
With B3, in assay [3], the EC50 came out at 0.337 nM. Moreover, the binding result in assay [4] is reported as “binds”.

B4: single-domain antibody 10B3 (VHH)
VHH: ESGGGLVQAGESLRLSCAASGRTFTNYAMGWFRQAPGKEREFVAGVSWSGSSTDYADSVKGRFTISTDNAKNTVYLQINNLKPEDTAVYICGVKYFGHSRGGYDYWGQGTQVTVSS
notes: as for B2
B4: the binding result in assay [2] is given as “binds”.

B5: Fc fusion antibody of single-domain antibody 10B3 (Fc fusion)
chain: ESGGGLVQAGESLRLSCAASGRTFTNYAMGWFRQAPGKEREFVAGVSWSGSSTDYADSVKGRFTISTDNAKNTVYLQINNLKPEDTAVYICGVKYFGHSRGGYDYWGQGTQVTVSS
notes: as for B3
For the molecule B5, the half-maximal effective concentration (EC50) in assay [5] came to 0.242 nM. In assay [4], the binding result is given as “binds”.

B6: single-domain antibody 11D3 (VHH)
VHH: ESGGGLVQAGESLRLSCAASGRTFTDYAMGWFRQAPGKEREFVAGVSWSGSSTDYADSVKGRFTISTDNAKNTVYLQMTSLKPEDTAVYICGVKYFGHSRGGYDYWGQGTQVTVSS
notes: as for B2
Take B6: the binding result in assay [2] is “binds”.

B7: Fc fusion antibody of single-domain antibody 10E12 (Fc fusion)
chain: ESGGGLVQPGGSLRLSCAASGFTFSGYYMSWVRQVPGKARELVAGITRGGNTYYADSVKGRFTISRDNAKNTVYLQMNNLKPEDTTVYYCNARRATTYYWGQGTQVTVSS
notes: as for B3
In the case of B7, the 50% effective concentration (EC50) in assay [5] came to 0.293 nM. For the same molecule, in assay [4], the binding result was “binds”.

B8: single-domain antibody 10E12 (VHH)
VHH: ESGGGLVQPGGSLRLSCAASGFTFSGYYMSWVRQVPGKARELVAGITRGGNTYYADSVKGRFTISRDNAKNTVYLQMNNLKPEDTTVYYCNARRATTYYWGQGTQVTVSS
notes: as for B2
With B8, the binding result in assay [2] is “binds”.

B9: 11H2-hFC4 (Fc fusion antibody of single-domain antibody 11H2) (Fc fusion)
chain (part 1 of 2): ESGGGLVQPGGSLRLSCAASGLTFSEYYMSWVRQVPGKARELVAGITRGGNTYYADSVKGRFTISRDNAKNTVYLQMNNLKPEDTTVYYCNARRATTYYWGQGTQVTVSS
Turning to B9, the EC50 in assay [3] was 0.33 nM.

B10: single-domain antibody 11H2 (VHH)
VHH: ESGGGLVQPGGSLRLSCAASGLTFSEYYMSWVRQVPGKARELVAGITRGGNTYYADSVKGRFTISRDNAKNTVYLQMNNLKPEDTTVYYCNARRATTYYWGQGTQVTVSS
notes: as for B2
For B10, in assay [2], the binding result is “binds”.

B11: Fc fusion antibody of single-domain antibody 1H1 (Fc fusion)
chain: ESGGGLVQPGGSLRLSCAASGRTFSSYVMGWFRQAPGKEREFVAAISWSGGITYYGDSVKGRFTISRDNAKNTVFLQMNSLKPEDTAVYYCASGSGSYYRGWEYDYWGQGTQVTVSS
notes: as for B3
Take B11: in assay [6], the EC50 was 0.38 nM. For the same molecule, in assay [4], the binding result is recorded as “binds”.

B12: single-domain antibody 1H1 (VHH)
VHH: ESGGGLVQPGGSLRLSCAASGRTFSSYVMGWFRQAPGKEREFVAAISWSGGITYYGDSVKGRFTISRDNAKNTVFLQMNSLKPEDTAVYYCASGSGSYYRGWEYDYWGQGTQVTVSS
notes: as for B2
Take B12: the binding result in assay [2] is “binds”.

B13: Fc fusion antibody of single-domain antibody 12G10 (Fc fusion)
chain: ESGGGLVQPGGSLRLSCAASGFAFSNYVMHWYRQAPEKERELVAIIGSQGGAYTNYAASVKGRFTISRDNAKNMVYLQMNNLKPEDTAVYYCNVVYIGRPNWGQGTQVTVSS
notes: as for B3
Take B13: the half-maximal effective concentration (EC50) in assay [3] is 0.3 nM. The binding result in assay [4] is on record as “binds”.

B14: single-domain antibody 12G10 (VHH)
VHH: ESGGGLVQPGGSLRLSCAASGFAFSNYVMHWYRQAPEKERELVAIIGSQGGAYTNYAASVKGRFTISRDNAKNMVYLQMNNLKPEDTAVYYCNVVYIGRPNWGQGTQVTVSS
notes: as for B2
As to B14, in assay [2], the binding result is listed as “binds”.

B15: single-domain antibody 10F10 (VHH)
VHH: ESGGGLVQPGGSLRLSCAASGFAFGNYVMHWYRQAPEKERELVAIIGSQGGTYTNYADSVKGRFTISRDNAKNMVYLQMNNLKPEDTAVYYCNVVYIGRPNWGQGTQVTVSS
notes: as for B2
For the molecule B15, in assay [2], the binding result is on record as “binds”.

B16: Fc fusion antibody of single-domain antibody 2B5 (Fc fusion)
chain: ESGGGLVQPGGSLRLSCAASGFAFSNYVMHWYRQAPEKERELVALIGSQGGAYTNYAGSVKGRFTISRDNTKNMVYLQMNNLKPEDTAVYYCNVVYNGRPNWGQGTQVTVSS
notes: as for B3
As for B16, the concentration for a half-maximal effect (EC50) in assay [6] was determined as 0.201 nM. Besides, in assay [4], the binding result is given as “binds”.

B17: single-domain antibody 2B5 (VHH)
VHH: ESGGGLVQPGGSLRLSCAASGFAFSNYVMHWYRQAPEKERELVALIGSQGGAYTNYAGSVKGRFTISRDNTKNMVYLQMNNLKPEDTAVYYCNVVYNGRPNWGQGTQVTVSS
notes: as for B2
For B17, in assay [2], the binding result was “binds”.

B18: Fc fusion antibody of single-domain antibody 10F10 (Fc fusion)
chain: ESGGGLVQPGGSLRLSCAASGFAFGNYVMHWYRQAPEKERELVAIIGSQGGTYTNYADSVKGRFTISRDNAKNMVYLQMNNLKPEDTAVYYCNVVYIGRPNWGQGTQVTVSS
notes: as for B3
Consider B18, for which the EC50 in assay [5] worked out at 0.265 nM. In assay [4], the binding result is given as “binds”.
